From US20060228349A1

Legend:
[1] = molecular target: ADDL fibril preparation (Aβ1-42 fibrils); assay: solution equilibrium titration, free IgG by ELISA, GraFit; SE 0.12
[2] = molecular target: amyloid beta (1-40) peptide; assay: solution equilibrium titration, free IgG by ELISA, GraFit; SE 0.62
[3] = molecular target: Aβ1-20 peptide; assay: solution equilibrium titration, free IgG by ELISA, GraFit; SE 3.53
[4] = molecular target: Aβ-derived diffusible ligands (synthetic ADDLs), soluble oligomers of amyloid β1-42; assay: solution equilibrium titration, free IgG by ELISA, GraFit; SE 0.042

Sequence of Aβ1-20 peptide (peptide, as listed by the source): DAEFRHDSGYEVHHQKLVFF

Kd [1]: 1.15 nM | Kd [2]: 6.15 nM | Kd [3]: 19.3 nM | Kd [4]: 0.57 nM
Substance: monoclonal antibody WO-2
